Test results published in patent US20210063414A1, “METHODS FOR PREVENTING AND/OR TREATING BONE LOSS CONDITIONS BY MODULATING IRISIN” (Dana-Farber Cancer Institute, Inc., priority 2018, published 2021).

Biological target: T1, MLO-Y4 cell surface proteins (Mus musculus, UniProt P70388)
T1 construct: endogenous in cells; host or cells: MLO-Y4
T1 sequence (P70388 1-1312): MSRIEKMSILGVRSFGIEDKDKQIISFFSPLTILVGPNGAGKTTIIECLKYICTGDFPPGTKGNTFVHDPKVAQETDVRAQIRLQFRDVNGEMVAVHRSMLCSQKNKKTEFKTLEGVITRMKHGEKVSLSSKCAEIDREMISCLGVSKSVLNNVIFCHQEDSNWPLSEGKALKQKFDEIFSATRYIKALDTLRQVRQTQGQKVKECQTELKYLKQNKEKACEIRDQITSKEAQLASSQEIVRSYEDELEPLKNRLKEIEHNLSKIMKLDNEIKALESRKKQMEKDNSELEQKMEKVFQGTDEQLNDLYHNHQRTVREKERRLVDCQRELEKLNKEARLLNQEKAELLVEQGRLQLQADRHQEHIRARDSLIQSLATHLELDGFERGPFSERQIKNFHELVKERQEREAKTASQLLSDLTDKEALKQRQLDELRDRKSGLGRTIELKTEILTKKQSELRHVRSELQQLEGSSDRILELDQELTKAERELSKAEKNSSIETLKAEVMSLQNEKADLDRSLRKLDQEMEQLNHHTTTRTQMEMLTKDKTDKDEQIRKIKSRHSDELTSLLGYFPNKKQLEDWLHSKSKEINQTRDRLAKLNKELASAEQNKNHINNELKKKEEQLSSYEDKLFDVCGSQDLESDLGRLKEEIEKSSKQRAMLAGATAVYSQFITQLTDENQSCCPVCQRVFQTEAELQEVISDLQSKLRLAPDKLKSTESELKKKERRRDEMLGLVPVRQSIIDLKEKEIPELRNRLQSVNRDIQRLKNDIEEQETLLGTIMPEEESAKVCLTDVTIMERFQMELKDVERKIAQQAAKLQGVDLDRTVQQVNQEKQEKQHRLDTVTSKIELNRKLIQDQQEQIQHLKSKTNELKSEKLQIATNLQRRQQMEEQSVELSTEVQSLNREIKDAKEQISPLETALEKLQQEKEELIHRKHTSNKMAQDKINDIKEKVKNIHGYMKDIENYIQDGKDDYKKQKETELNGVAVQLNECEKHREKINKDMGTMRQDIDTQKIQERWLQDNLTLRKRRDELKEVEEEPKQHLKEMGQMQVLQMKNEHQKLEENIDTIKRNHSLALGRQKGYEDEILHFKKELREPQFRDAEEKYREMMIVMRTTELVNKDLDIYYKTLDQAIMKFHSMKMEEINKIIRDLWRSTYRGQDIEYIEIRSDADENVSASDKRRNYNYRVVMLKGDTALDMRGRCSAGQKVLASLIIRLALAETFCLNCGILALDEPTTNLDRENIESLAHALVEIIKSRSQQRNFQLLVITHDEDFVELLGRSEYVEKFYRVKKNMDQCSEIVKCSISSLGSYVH
Assay: Crosslinking/co-immunoprecipitation/mass spectrometry (TMT quantitative proteomics) to identify irisin receptors
Assay type: binding
Conditions: co-precipitated protein Rad50 (RAD50_MOUSE)
Method in brief: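 Relative protein abundance came from 6-plex TMT MS3 quantitation on an Orbitrap Fusion Lumos, after in-gel trypsin digestion of Coomassie-stained SDS-PAGE lanes. Input was a Ni-NTA pulldown (250 mM imidazole elution) of lysates from murine MLO-Y4 cells. These cells were treated on ice with His-tagged irisin or adipsin (10 nM, 20 min) in serum-free medium, then crosslinked with 1.5 mM DTSSP for 30 min.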

Question: With adipsin as the substance, how does the TMT signal-to-noise ratio read?
Answer: 422.246
